Laboratory results as given in publication PMC4239081, “Differential Interaction Kinetics of a Bipolar Structure-Specific Endonuclease with DNA Flaps Revealed by Single-Molecule Imaging”.

Legend:
PCNA (Pyrococcus abyssi) = PCNA (Pyrococcus abyssi) (UniProt Q9UYX8); conditions: cited from earlier work
NucS (PabNucS) [1] = molecular target: T1, NucS (PabNucS) (Pyrococcus abyssi, UniProt Q9V2E8 1-251); assay: single-molecule TIRF (koff/kon); 50 mM NaCl, 23 C, no divalent cations; koff 0.52 s-1; Imaging buffer B2: 20 mM HEPES, 150 mM NaCl (or 50 mM), 0.1 mg/ml casein Blocking Reagent; pH not given; 23 C without divalent cations, or 45 C with or without; conditions: protein: recombinant; tags: Alexa488 label; chain copies: 2; label: Alexa488 on F3D47; 3' flap of 20 nt at ss/dsDNA junction; three strands
T1 sequence: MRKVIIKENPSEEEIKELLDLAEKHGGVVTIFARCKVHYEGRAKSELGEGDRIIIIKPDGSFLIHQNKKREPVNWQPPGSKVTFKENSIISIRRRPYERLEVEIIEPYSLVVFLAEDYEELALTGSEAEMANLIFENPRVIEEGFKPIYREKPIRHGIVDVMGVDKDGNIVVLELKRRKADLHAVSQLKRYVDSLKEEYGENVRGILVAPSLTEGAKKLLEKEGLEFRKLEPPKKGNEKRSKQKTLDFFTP

NucS (PabNucS) [2] = molecular target: T1, NucS (PabNucS); assay: single-molecule TIRF (koff/kon); 150 mM NaCl, 23 C, no divalent cations; koff 0.076 s-1; Imaging buffer B2: 20 mM HEPES, 150 mM NaCl (or 50 mM), 0.1 mg/ml casein Blocking Reagent; pH not given; 23 C without divalent cations, or 45 C with or without; conditions: protein: recombinant; tags: Alexa488 label; chain copies: 2; label: Alexa488 on F3D47; 3' flap of 20 nt at ss/dsDNA junction; three strands
NucS (PabNucS) [3] = molecular target: T1, NucS (PabNucS); assay: single-molecule TIRF (koff/kon); 50 mM NaCl, 23 C, no divalent cations; koff 0.35 s-1; Imaging buffer B2: 20 mM HEPES, 150 mM NaCl (or 50 mM), 0.1 mg/ml casein Blocking Reagent; pH not given; 23 C without divalent cations, or 45 C with or without; conditions: protein: recombinant; tags: Alexa488 label; chain copies: 2; label: Alexa488 on F5D42; 5' flap of 20 nt at ss/dsDNA junction; three strands; D27 as printed has a mismatch to 49N
NucS (PabNucS) [4] = molecular target: T1, NucS (PabNucS); assay: single-molecule TIRF (koff/kon); 150 mM NaCl, 23 C, no divalent cations; koff 0.026 s-1; Imaging buffer B2: 20 mM HEPES, 150 mM NaCl (or 50 mM), 0.1 mg/ml casein Blocking Reagent; pH not given; 23 C without divalent cations, or 45 C with or without; conditions: protein: recombinant; tags: Alexa488 label; chain copies: 2; label: Alexa488 on F5D42; 5' flap of 20 nt at ss/dsDNA junction; three strands; D27 as printed has a mismatch to 49N
NucS (PabNucS) [5] = molecular target: T1, NucS (PabNucS); assay: single-molecule TIRF (koff/kon); 45 C, no Mn2+, no PCNA; koff 0.027 s-1; Imaging buffer B2: 20 mM HEPES, 150 mM NaCl (or 50 mM), 0.1 mg/ml casein Blocking Reagent; pH not given; 23 C without divalent cations, or 45 C with or without; conditions: protein: recombinant; tags: Alexa488 label; chain copies: 2; label: Alexa488 on F3D47; 3' flap of 20 nt; three strands
[6] = molecular target: T2, NucS (PabNucS);PCNA (PabPCNA) (Pyrococcus abyssi;Pyrococcus abyssi, UniProt Q9V2E8;Q9UYX8 1-251;1-249, |); assay: single-molecule TIRF (koff/kon); 45 C, 50 nM PCNA, no Mn2+; koff 0.55 s-1; Imaging buffer B2: 20 mM HEPES, 150 mM NaCl (or 50 mM), 0.1 mg/ml casein Blocking Reagent; pH not given; 23 C without divalent cations, or 45 C with or without; conditions: protein: recombinant;recombinant; tags: Alexa488 label;; chain copies: 2;3; label: Alexa488 on F3D47; 3' flap of 20 nt; three strands
T2 sequence 1: T1 sequence
T2 sequence 2: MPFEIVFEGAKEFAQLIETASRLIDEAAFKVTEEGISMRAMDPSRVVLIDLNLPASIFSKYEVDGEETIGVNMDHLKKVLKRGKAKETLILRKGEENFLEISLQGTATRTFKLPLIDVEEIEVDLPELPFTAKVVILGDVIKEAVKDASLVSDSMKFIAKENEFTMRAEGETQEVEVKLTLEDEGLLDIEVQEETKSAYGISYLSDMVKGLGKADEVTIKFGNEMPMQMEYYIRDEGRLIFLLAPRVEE

[7] = molecular target: T2, NucS (PabNucS);PCNA (PabPCNA); assay: single-molecule TIRF (koff/kon); 45 C, PCNA, 5 mM MnCl2 (cleaving); koff 0.85 s-1; Imaging buffer B2: 20 mM HEPES, 150 mM NaCl (or 50 mM), 0.1 mg/ml casein Blocking Reagent; pH not given; 23 C without divalent cations, or 45 C with or without; conditions: protein: recombinant;recombinant; tags: Alexa488 label;; chain copies: 2;3; label: Alexa488 on F3D47; 3' flap of 20 nt; three strands
[8] = molecular target: T2, NucS (PabNucS);PCNA (PabPCNA); assay: single-molecule TIRF (koff/kon); 45 C, PCNA, no Mn2+; koff 0.90 s-1; Imaging buffer B2: 20 mM HEPES, 150 mM NaCl (or 50 mM), 0.1 mg/ml casein Blocking Reagent; pH not given; 23 C without divalent cations, or 45 C with or without; conditions: protein: recombinant;recombinant; tags: Alexa488 label;; chain copies: 2;3; label: Alexa488 on F5D42; 5' flap of 20 nt; three strands; D27 as printed has a mismatch to 49N
NucS (PabNucS) [9] = molecular target: T1, NucS (PabNucS); assay: single-molecule TIRF (koff/kon); 45 C, no Mn2+, no PCNA; koff 0.50 s-1; Imaging buffer B2: 20 mM HEPES, 150 mM NaCl (or 50 mM), 0.1 mg/ml casein Blocking Reagent; pH not given; 23 C without divalent cations, or 45 C with or without; conditions: protein: recombinant; tags: Alexa488 label; chain copies: 2; label: Alexa488 on F5D42; 5' flap of 20 nt; three strands; D27 as printed has a mismatch to 49N
[10] = molecular target: T2, NucS (PabNucS);PCNA (PabPCNA); assay: single-molecule TIRF (koff/kon); 45 C, PCNA, 5 mM MnCl2 (cleaving); koff 0.67 s-1; Imaging buffer B2: 20 mM HEPES, 150 mM NaCl (or 50 mM), 0.1 mg/ml casein Blocking Reagent; pH not given; 23 C without divalent cations, or 45 C with or without; conditions: protein: recombinant;recombinant; tags: Alexa488 label;; chain copies: 2;3; label: Alexa488 on F5D42; 5' flap of 20 nt; three strands; D27 as printed has a mismatch to 49N
NucS (PabNucS) [11] = molecular target: T1, NucS (PabNucS); assay: single-molecule TIRF; 150 mM NaCl, 23 C; kon 0.04e6 M-1s-1, no significant binding; Imaging buffer B2: 20 mM HEPES, 150 mM NaCl (or 50 mM), 0.1 mg/ml casein Blocking Reagent; pH not given; 23 C without divalent cations, or 45 C with or without; conditions: protein: recombinant; tags: Alexa488 label; chain copies: 2; duplex; strands as printed not perfectly complementary

Molecule: NucS (from UniProt Q9V2E8)
- Kd (PCNA (Pyrococcus abyssi)): 15 nM

B1: 3'-flap (49N/F3D47/D22) (structured_DNA)
DNA 1: AGCTACCATGCCTGCACGAATTAAGCAATTCGTAATCATGGTCATAGCT
DNA 2: AGCTATGACCATGATTACGAATTGCTTGGAATCCTGACGAACTGTAG
DNA 3: AATTCGTGCAGGCATGGTAGCT
modifications: biotin (two at each end of 49N)
- Kd (NucS (PabNucS) [1]): 17.7 ± 0.4 nM
- Kd (NucS (PabNucS) [2]): 7.8 ± 0.3 nM

B2: 5'-flap (49N/F5D42/D27) (structured_DNA)
DNA 1: B1 DNA 1
DNA 2: GATGTCAAGCAGTCCTAAGGAATTCGTGCAGGCATGGTAGCT
DNA 3: AGCTATGATCATGATTACGAATTGCTT
modifications: biotin (two at each end of 49N)
- Kd (NucS (PabNucS) [3]): 9.4 ± 0.4 nM
- Kd (NucS (PabNucS) [4]): 2.6 ± 0.2 nM

B3: 3'-flap, one biotin (45 C) (structured_DNA)
DNA 1: B1 DNA 1
DNA 2: B1 DNA 2
DNA 3: AATTCGTGCAGGCATGGTAGCT
modifications: one biotin at the extremity
- Kd (NucS (PabNucS) [5]): 12 ± 3 nM
- Kd [6]: 161 ± 29 nM
- Kd [7]: 250 ± 47 nM

B4: 5'-flap, one biotin (45 C) (structured_DNA)
DNA 1: B1 DNA 1
DNA 2: B2 DNA 2
DNA 3: AGCTATGATCATGATTACGAATTGCTT
modifications: one biotin at the extremity
- Kd [8]: 195 ± 20 nM
- Kd (NucS (PabNucS) [9]): 625 ± 470 nM
- Kd [10]: 145 ± 15 nM

B5: dsDNA (40N/40NC) (dsDNA)
DNA 1: CCTGCACGAATTAAGCAATTCGATATCATGGTCATAGCT
DNA 2: AGCTATGACCATGATTACGAATTGCTTAATTCGTGCAGG
modifications: biotin? (immobilized)
- binding result (NucS (PabNucS) [11]): no binding
